We go through three molecules from US20230192820A1 (published 2023).

Assay [1] deals with SARS-CoV-2 S protein S1 subunit (amino acids 1-604), Myc/His tagged (SARS-CoV-2, UniProt P0DTC2 14-604).
In assay [2] the target is SARS-CoV-2 spike (S) protein on virus or pseudovirus particles (SARS-CoV-2, UniProt P0DTC2 14-1273). Nature of the assay: cell-based or functional assay.
Assay [3] has as its target SARS-CoV-2 S protein RBD (amino acids 319-541) (SARS-CoV-2, UniProt P0DTC2 319-541).
Assay [4] concerns the target SARS-CoV S protein RBD (amino acids 270-510) (SARS-CoV (Urbani strain), UniProt P59594 270-510).

B1: MAb362 (antibody, V domains shown)
VH: QVQLVESGGGVVQPGRSLRLSCAASGFSFSSYGMHWVRQAPGKGLEWVAVIWYDGSDKYYADSVKGRFTISRDNSKNTLYLQLNSLRAEDTAIYYCARERYFDWIFDFWGQGTLVTVSS
VL: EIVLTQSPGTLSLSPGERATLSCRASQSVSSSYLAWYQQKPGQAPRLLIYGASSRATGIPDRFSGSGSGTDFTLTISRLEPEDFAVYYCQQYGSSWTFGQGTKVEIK
For the molecule B1, the EC50 (usually the concentration that produces a half-maximal response) in assay [1] was around 40 nM. In addition, the “plaque reduction neutralization test (PRNT), EC50” value in assay [2] was around 5 mg/L.

B2: MAb362 IgG1 (antibody, V domains shown)
VH: QVQLVESGGGVVQPGRSLRLSCAASGFSFSSYGMHWVRQAPGKGLEWVAVIWYDGSDKYYADSVKGRFTISRDNSKNTLYLQLNSLRAEDTAIYYCARERYFDWIFDFWGQGTLVTVSS
VL: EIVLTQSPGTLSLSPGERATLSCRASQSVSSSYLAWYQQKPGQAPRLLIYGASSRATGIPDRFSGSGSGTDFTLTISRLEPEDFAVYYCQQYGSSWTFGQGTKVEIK
Take B2: the figures for the Kd in assay [3] and in assay [4] were 13 nM and 1.3 nM, respectively. In addition, the “neutralization of SARS-CoV-2 pseudovirus, IC50” value in assay [2] worked out at 58.7 mg/L.

B3: MAb362 IgA1 (monomeric) (antibody, V domains shown)
VH: QVQLVESGGGVVQPGRSLRLSCAASGFSFSSYGMHWVRQAPGKGLEWVAVIWYDGSDKYYADSVKGRFTISRDNSKNTLYLQLNSLRAEDTAIYYCARERYFDWIFDFWGQGTLVTVSS
VL: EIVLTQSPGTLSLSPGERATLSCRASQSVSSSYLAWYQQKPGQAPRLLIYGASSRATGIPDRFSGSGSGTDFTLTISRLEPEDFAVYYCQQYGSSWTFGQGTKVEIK
As for B3, the dissociation constant (Kd) (as a rule, the constant that tells how readily two partners part at equilibrium) in assay [3] is 0.3 nM; in assay [4] it was 1.4 nM. Also, the “neutralization of SARS-CoV-2 pseudovirus, IC50” value in assay [2] amounted to 1.26 mg/L.
